Experimental data from patent US20250361544A1, “TYPE III-D CRISPR-CAS SYSTEM AND USES THEREOF” (BOARD OF REGENTS, THE UNIVERSITY OF TEXAS SYSTEM, published 2025).

Columns and labels:
[1] = biological target: T1, Cas7-Cas5-Cas11 fusion subunit of the Synechocystis sp. PCC 6803 Type III-Dv complex (Synechocystis sp. PCC 6803); assay: co-purification by metal affinity (His6-Cas10) and SEC; SDS-PAGE and MS; membership of one complex
T1 construct: Untagged, co-expressed from pPF2434 in E. coli; one copy in the complex; also called Cas7-5-11; Cas5-Cas7-Cas11
T1 chain: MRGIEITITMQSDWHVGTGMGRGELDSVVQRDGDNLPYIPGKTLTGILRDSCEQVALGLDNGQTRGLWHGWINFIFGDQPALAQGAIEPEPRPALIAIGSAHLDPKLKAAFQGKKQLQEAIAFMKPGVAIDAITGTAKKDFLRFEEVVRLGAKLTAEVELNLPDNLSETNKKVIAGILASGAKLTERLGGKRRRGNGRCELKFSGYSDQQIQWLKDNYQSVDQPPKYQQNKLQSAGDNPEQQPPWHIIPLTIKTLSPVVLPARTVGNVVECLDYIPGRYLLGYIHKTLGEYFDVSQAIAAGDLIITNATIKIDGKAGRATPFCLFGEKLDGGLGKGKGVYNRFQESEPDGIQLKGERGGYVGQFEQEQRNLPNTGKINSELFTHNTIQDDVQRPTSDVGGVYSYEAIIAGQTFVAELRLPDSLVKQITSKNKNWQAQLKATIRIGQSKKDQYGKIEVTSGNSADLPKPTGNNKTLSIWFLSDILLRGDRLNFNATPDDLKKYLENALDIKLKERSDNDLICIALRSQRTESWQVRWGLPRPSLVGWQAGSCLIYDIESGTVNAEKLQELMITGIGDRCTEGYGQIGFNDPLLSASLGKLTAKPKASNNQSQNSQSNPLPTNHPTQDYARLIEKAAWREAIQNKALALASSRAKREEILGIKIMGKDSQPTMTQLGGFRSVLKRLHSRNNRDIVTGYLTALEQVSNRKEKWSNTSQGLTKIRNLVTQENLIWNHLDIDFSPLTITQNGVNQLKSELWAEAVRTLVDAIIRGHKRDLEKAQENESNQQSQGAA
Protocol: Cells were lysed by a French pressure cell press (American Industry Company) at 10,000 psi, and the lysate was clarified by centrifugation at 15,000×g for 15 min. […] The fractions containing the Type III-Dv complex were pooled and treated with TEV protease and incubated at 4° C. during overnight dialysis in SEC buffer (10 mM HEPES-NaOH, PH 7.5, 100 mM KCl, 5% Glycerol, 1 mM DTT). The sample was applied to a second HisTrap column; however, due to inefficient TEV cleavage, the complex unexpectedly bound the column and eluted with high imidazole. The complex was further purified by size exclusion chromatography (SEC) on a HiLoad 16/600 Superdex 200 column (GE Healthcare) equilibrated in SEC Buffer). Mutant Type III-Dv complexes were similarly expressed and purified, except TEV protease was omitted. Purified complexes were typically concentrated to 1.5 mg/ml using a centrifugal concentrator (Amicon; 100 kDa MWCO), aliquoted, and stored at −80° C.
Denaturing liquid chromatography mass spectrometry (LC-MS) was performed on a Dionex UltiMate 3000 nanoLC system coupled to a Thermo Orbitrap Fusion Lumos Tribrid mass spectrometer (San Jose, Ca). The trap column (3 cm) and analytical column (30 cm) were packed in-house with polymer reverse-phase (PLRP) packing material. […]

[2] = biological target: T2, Type III-Dv subunits co-expressed without Csx19 (Cas7-Cas5-Cas11, Cas7-2x and Cas7-insertion, with crRNA) (Synechocystis sp. PCC 6803); assay: His-tag affinity purification and SEC of the ΔCsx19 co-expression; SDS-PAGE
T2 construct: These are the subunits left beside His-tagged Cas10 when csx19 carries a nonsense mutation (pPF3089); they are grouped here only as the prey set of the ΔCsx19 pulldown; also called ΔCsx19 complex; ΔCsx19 type Type III-Dv complex
T2 sequence (chain, as listed by the source limits assumed, chain 2 of 3, one chain of several): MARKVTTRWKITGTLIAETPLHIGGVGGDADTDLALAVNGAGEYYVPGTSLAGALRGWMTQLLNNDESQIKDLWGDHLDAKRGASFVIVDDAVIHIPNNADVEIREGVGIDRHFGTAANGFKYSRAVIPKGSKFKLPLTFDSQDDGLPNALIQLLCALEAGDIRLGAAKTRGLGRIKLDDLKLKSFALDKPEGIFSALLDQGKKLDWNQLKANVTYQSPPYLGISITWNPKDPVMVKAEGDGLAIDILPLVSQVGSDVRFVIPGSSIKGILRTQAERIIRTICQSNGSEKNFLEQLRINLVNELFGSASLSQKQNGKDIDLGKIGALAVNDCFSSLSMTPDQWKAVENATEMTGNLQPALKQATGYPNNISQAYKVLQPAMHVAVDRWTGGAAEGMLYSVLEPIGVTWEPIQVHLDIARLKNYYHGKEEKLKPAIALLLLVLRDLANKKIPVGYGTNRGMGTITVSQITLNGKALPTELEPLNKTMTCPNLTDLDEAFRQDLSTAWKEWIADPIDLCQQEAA
T2 sequence (chain, as listed by the source limits assumed, chain 3 of 3, one chain of several): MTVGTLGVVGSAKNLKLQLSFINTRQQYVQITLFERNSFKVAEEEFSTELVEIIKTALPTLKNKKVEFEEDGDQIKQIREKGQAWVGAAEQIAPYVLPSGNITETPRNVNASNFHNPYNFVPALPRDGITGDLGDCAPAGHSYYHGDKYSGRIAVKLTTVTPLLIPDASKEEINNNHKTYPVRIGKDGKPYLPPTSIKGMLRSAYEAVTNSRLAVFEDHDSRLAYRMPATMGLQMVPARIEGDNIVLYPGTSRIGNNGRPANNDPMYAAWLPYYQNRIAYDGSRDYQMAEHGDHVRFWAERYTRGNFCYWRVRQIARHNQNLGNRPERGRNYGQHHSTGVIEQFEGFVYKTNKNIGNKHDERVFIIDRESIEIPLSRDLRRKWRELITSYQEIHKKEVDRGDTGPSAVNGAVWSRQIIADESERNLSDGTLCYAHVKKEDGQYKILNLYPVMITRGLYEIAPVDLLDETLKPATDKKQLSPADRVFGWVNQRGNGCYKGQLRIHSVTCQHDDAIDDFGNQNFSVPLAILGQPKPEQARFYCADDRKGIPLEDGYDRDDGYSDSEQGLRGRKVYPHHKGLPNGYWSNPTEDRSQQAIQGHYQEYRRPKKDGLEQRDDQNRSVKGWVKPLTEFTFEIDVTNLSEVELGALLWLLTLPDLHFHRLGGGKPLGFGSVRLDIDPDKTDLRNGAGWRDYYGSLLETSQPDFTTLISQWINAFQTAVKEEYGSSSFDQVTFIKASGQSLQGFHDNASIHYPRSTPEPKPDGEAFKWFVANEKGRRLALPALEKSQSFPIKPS

[3] = biological target: T3, Cas6-2a of Synechocystis sp. PCC 6803 (Synechocystis sp. PCC 6803); assay: metal affinity (His6-Cas10) and size-exclusion co-purification from E. coli; SDS-PAGE and mass spectrometry
T3 construct: The Results say cas6-2a was cloned and expressed with the operon
T3 chain: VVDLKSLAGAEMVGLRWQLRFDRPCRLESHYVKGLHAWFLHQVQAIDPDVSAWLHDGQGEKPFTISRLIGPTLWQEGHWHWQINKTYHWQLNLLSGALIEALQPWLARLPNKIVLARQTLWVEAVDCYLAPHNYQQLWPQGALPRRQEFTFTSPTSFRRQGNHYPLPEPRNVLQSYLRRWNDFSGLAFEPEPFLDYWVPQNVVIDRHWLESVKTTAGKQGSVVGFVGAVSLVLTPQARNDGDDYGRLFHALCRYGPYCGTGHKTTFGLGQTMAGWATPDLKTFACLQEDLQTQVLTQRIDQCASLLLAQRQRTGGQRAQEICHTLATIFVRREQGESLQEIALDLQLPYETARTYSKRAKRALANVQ
Protocol: The sample was applied to a second HisTrap column; however, due to inefficient TEV cleavage, the complex unexpectedly bound the column and eluted with high imidazole. The complex was further purified by size exclusion chromatography (SEC) on a HiLoad 16/600 Superdex 200 column (GE Healthcare) equilibrated in SEC Buffer). Mutant Type III-Dv complexes were similarly expressed and purified, except TEV protease was omitted. Purified complexes were typically concentrated to 1.5 mg/ml using a centrifugal concentrator (Amicon; 100 kDa MWCO), aliquoted, and stored at −80° C.
Denaturing liquid chromatography mass spectrometry (LC-MS) was performed on a Dionex UltiMate 3000 nanoLC system coupled to a Thermo Orbitrap Fusion Lumos Tribrid mass spectrometer (San Jose, Ca). The trap column (3 cm) and analytical column (30 cm) were packed in-house with polymer reverse-phase (PLRP) packing material. Approximately 80 ng of the CRISPR complex were injected and subjected to reverse-phase chromatography, utilizing water with 0.1% formic acid as mobile phase A (MPA), and acetonitrile with 0.1% formic acid as mobile phase B (MPB). Forward trapping occurred for 5 minutes at 2% MPB at a flow rate of 5 μL/min at the trap column. Elution onto the analytical column (at 0.3 μL/min) occurred by increasing MPB to 10% over a 3-minute gradient followed by an increase to 35% MPB over 32 minutes. […]

binding result [1]: binds | binding result [2]: no binding | binding result [3]: no binding
B1: Cas10 subunit of the Synechocystis sp. PCC 6803 Type III-Dv CRISPR-Cas complex, with N-terminal His6 tag and TEV site (other)
chain: MFLVLIETSGNQHFIFSTNKLRENIGASELTYLATTEILFQGVDRVFQTNYYDQWSDTNSLNFLADSKLNPAIDDPKNNADIEILLATSGKAIALVKEEGKAKQLIKEVTKQALINAPGLEIGGIYVNCNWQDKLGVAKAVKEAHKQFEVNRAKRAGANGRFLRLPIAAGCSVSELPASDFDYNADGDKIPVSTVSKVKRETAKSAKKRLRSVDGRLVNDLAQLEKSFDELDWLAVVHADGNGLGQILLSLEKYIGEQTNRNYIDKYRRLSLALDNCTINAFKMAIAVFKEDSKKIDLPIVPLILGGDDLTVICRGDYALEFTREFLEAFEGQTETHDDIKVIAQKAFGVDRLSACAGISIIKPHFPFSVAYTLAERLIKSAKEVKQKVTVTNSSPITPFPCSAIDFHILYDSSGIDFDRIREKLRPEDNTELYNRPYVVTAAENLSQAQGYEWSQAHSLQTLADRVSYLRSEDGEGKSALPSSQSHALRTALYLEKNEADAQYSLISQRYKILKNFAEDGENKSLFHLENGKYVTRFLDALDAKDFFANANHKNQGE
notes: Whole gene amplified from Synechocystis genomic DNA and co-expressed in E. coli from pPF2434; The complex also holds a 37-nt crRNA; also called His6-TEV-Cas10; N-His6-tagged Cas10; not shown: TEV cleavage was inefficient, so
